Measurements as given in the supplement of paper PMC9112550, “Optimization of the antimicrobial peptide Bac7 by deep mutational scanning” (BMC Biology, 2022).

Each sequence was assayed on Escherichia coli TOP10 (assay: shrunken log2 fold change of peptide-encoding DNA abundance (4.5 h post-induction vs induction); higher = less antimicrobial activity (less host growth inhibition)). Conditions: time post-induction: 4.5 h; library: site-saturation at positions 5, 18, 19, 20.
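Also: peptides expressed intracellularly from a pBAD plasmid library in pooled LB shake-flask culture, induced with 0.3% L-arabinose, DNA abundance read by NGS, three biological replicates, DESeq2 with apeglm shrinkage.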

| Sequence | shrunken log2 fold change |
| --- | --- |
| RRIRIRPPRLPRPRPRPYFDPRP | -0.711 |
| RRIRMRPPRLPRPRPRPNHIPRP | -0.407 |
| RRIRTRPPRLPRPRPRPWVRPRP | 0.0999 |
| RRIRHRPPRLPRPRPRPFPHPRP | 0.188 |
| RRIRIRPPRLPRPRPRPPLSPRP | -0.128 |
| RRIRSRPPRLPRPRPRPYMTPRP | -0.586 |
| RRIRTRPPRLPRPRPRPTPFPRP | 0.356 |
| RRIRFRPPRLPRPRPRPMFWPRP | -0.0645 |
| RRIRKRPPRLPRPRPRPNSPPRP | -0.027 |
| RRIRWRPPRLPRPRPRPTQLPRP | 0.0699 |
| RRIRRRPPRLPRPRPRPFMWPRP | 0.00755 |
| RRIRCRPPRLPRPRPRPTCPPRP | -0.26 |
| RRIRKRPPRLPRPRPRPKFRPRP | 0.00803 |
| RRIRKRPPRLPRPRPRPEGAPRP | 1.54 |
| RRIRYRPPRLPRPRPRPNLEPRP | -0.113 |
| RRIRVRPPRLPRPRPRPVRIPRP | 0.337 |
| RRIRERPPRLPRPRPRPKMGPRP | 0.00452 |
| RRIRPRPPRLPRPRPRPDIFPRP | 0.0196 |
| RRIRYRPPRLPRPRPRPTTSPRP | -0.382 |
| RRIRSRPPRLPRPRPRPMTWPRP | -0.0238 |
| RRIRRRPPRLPRPRPRPMATPRP | 0.609 |
| RRIRCRPPRLPRPRPRPAPVPRP | 0.56 |
| RRIRPRPPRLPRPRPRPHVNPRP | -0.38 |
| RRIRPRPPRLPRPRPRPHVCPRP | 0.171 |
| RRIRFRPPRLPRPRPRPHRKPRP | 0.306 |

| Sequence | shrunken log2 fold change |
| --- | --- |
| RRIRKRPPRLPRPRPRPTGSPRP | 0.423 |
| RRIRWRPPRLPRPRPRPWCWPRP | 0.304 |
| RRIRFRPPRLPRPRPRPVGYPRP | -0.129 |
| RRIRPRPPRLPRPRPRPKEMPRP | -0.106 |
| RRIRVRPPRLPRPRPRPAYSPRP | -0.167 |
| RRIRFRPPRLPRPRPRPHVNPRP | -0.297 |
| RRIRWRPPRLPRPRPRPVVYPRP | -0.228 |
| RRIRHRPPRLPRPRPRPGRHPRP | -0.0683 |
| RRIRCRPPRLPRPRPRPYVPPRP | -0.323 |
| RRIRFRPPRLPRPRPRPDDQPRP | -0.151 |
| RRIRCRPPRLPRPRPRPDFCPRP | -0.228 |
| RRIRTRPPRLPRPRPRPKKCPRP | -0.0193 |
| RRIRYRPPRLPRPRPRPCYFPRP | -1.04 |
| RRIRLRPPRLPRPRPRPPVRPRP | 0.426 |
| RRIRWRPPRLPRPRPRPECYPRP | -0.0149 |
| RRIRFRPPRLPRPRPRPYGQPRP | -0.101 |
| RRIRERPPRLPRPRPRPVRFPRP | 0.431 |
| RRIRDRPPRLPRPRPRPGNYPRP | -0.0159 |
| RRIRPRPPRLPRPRPRPCIAPRP | 0.00774 |
| RRIRLRPPRLPRPRPRPNWRPRP | 0.292 |
| RRIRTRPPRLPRPRPRPCIFPRP | -0.233 |
| RRIRQRPPRLPRPRPRPKSRPRP | 0.0336 |
| RRIRNRPPRLPRPRPRPVHIPRP | -0.15 |
| RRIRFRPPRLPRPRPRPHTAPRP | -0.337 |
| RRIRMRPPRLPRPRPRPLTFPRP | -0.291 |

| Sequence | shrunken log2 fold change |
| --- | --- |
| RRIRERPPRLPRPRPRPNHTPRP | -0.58 |
| RRIRERPPRLPRPRPRPTWVPRP | 0.138 |
| RRIRLRPPRLPRPRPRPFYDPRP | 0.00534 |
| RRIRSRPPRLPRPRPRPDDYPRP | 0.0211 |
| RRIRARPPRLPRPRPRPLMEPRP | 0.493 |
| RRIRDRPPRLPRPRPRPQCMPRP | -0.0894 |
| RRIRWRPPRLPRPRPRPVWYPRP | -0.18 |
| RRIRHRPPRLPRPRPRPYMHPRP | -0.448 |
| RRIRNRPPRLPRPRPRPQITPRP | -1.07 |
| RRIRNRPPRLPRPRPRPISGPRP | -0.0579 |
| RRIRERPPRLPRPRPRPIPLPRP | -0.275 |
| RRIRSRPPRLPRPRPRPGLGPRP | 0.485 |
| RRIRMRPPRLPRPRPRPCFGPRP | -0.23 |
| RRIRRRPPRLPRPRPRPWRPPRP | 0.734 |
| RRIRVRPPRLPRPRPRPRAHPRP | 0.00164 |
| RRIRLRPPRLPRPRPRPKDVPRP | -0.0185 |
| RRIRFRPPRLPRPRPRPDIMPRP | -0.06 |
| RRIRNRPPRLPRPRPRPVRNPRP | 0.178 |
| RRIRARPPRLPRPRPRPADCPRP | 0.203 |
| RRIRGRPPRLPRPRPRPTNQPRP | 0.579 |
| RRIRIRPPRLPRPRPRPTECPRP | 0.00877 |
| RRIRNRPPRLPRPRPRPDFVPRP | -0.045 |
| RRIRIRPPRLPRPRPRPNMNPRP | -0.773 |
| RRIRTRPPRLPRPRPRPMSLPRP | -0.147 |
| RRIRYRPPRLPRPRPRPFSLPRP | -1.22 |

| Sequence | shrunken log2 fold change |
| --- | --- |
| RRIRCRPPRLPRPRPRPRLVPRP | 0.0587 |
| RRIRARPPRLPRPRPRPCFLPRP | -0.24 |
| RRIRNRPPRLPRPRPRPCVRPRP | -0.109 |
| RRIRFRPPRLPRPRPRPLVSPRP | -0.425 |
| RRIRTRPPRLPRPRPRPFYVPRP | -0.45 |
| RRIRLRPPRLPRPRPRPALCPRP | 0.00966 |
| RRIRKRPPRLPRPRPRPFLWPRP | -0.119 |
| RRIRYRPPRLPRPRPRPWSMPRP | -0.221 |
| RRIRPRPPRLPRPRPRPVMFPRP | 0.885 |
| RRIRMRPPRLPRPRPRPLVFPRP | 0.102 |
| RRIRYRPPRLPRPRPRPKNYPRP | -1.38 |
| RRIRSRPPRLPRPRPRPCRVPRP | 0.11 |
| RRIRNRPPRLPRPRPRPEVGPRP | 0.662 |
| RRIRVRPPRLPRPRPRPCEVPRP | -0.0542 |
| RRIRIRPPRLPRPRPRPIDFPRP | -0.0103 |
| RRIRWRPPRLPRPRPRPLTCPRP | 0.0568 |
| RRIRDRPPRLPRPRPRPMSQPRP | -0.236 |
| RRIRKRPPRLPRPRPRPFQCPRP | -0.01 |
| RRIRCRPPRLPRPRPRPENAPRP | 0.117 |
| RRIRRRPPRLPRPRPRPDDSPRP | -0.0232 |
| RRIRHRPPRLPRPRPRPIPVPRP | -0.037 |
| RRIRRRPPRLPRPRPRPLPKPRP | 0.634 |
| RRIRDRPPRLPRPRPRPTDRPRP | 0.694 |
| RRIRERPPRLPRPRPRPENYPRP | 2 |
| RRIRCRPPRLPRPRPRPQYLPRP | -0.964 |

| Sequence | shrunken log2 fold change |
| --- | --- |
| RRIRVRPPRLPRPRPRPDHYPRP | -0.149 |
| RRIRFRPPRLPRPRPRPCTDPRP | -0.183 |
| RRIRLRPPRLPRPRPRPGVAPRP | 0.529 |
| RRIRSRPPRLPRPRPRPAYWPRP | 0.259 |
| RRIRIRPPRLPRPRPRPNAHPRP | -0.0997 |
| RRIRERPPRLPRPRPRPERCPRP | 0.125 |
| RRIRSRPPRLPRPRPRPRSNPRP | -0.186 |
| RRIRYRPPRLPRPRPRPGKIPRP | -0.524 |
| RRIRVRPPRLPRPRPRPPTRPRP | 0.508 |
| RRIRLRPPRLPRPRPRPKTWPRP | 0.108 |
| RRIRNRPPRLPRPRPRPFHKPRP | -0.107 |
| RRIRRRPPRLPRPRPRPAWDPRP | 0.324 |
| RRIRARPPRLPRPRPRPGTGPRP | 0.158 |
| RRIRQRPPRLPRPRPRPCQYPRP | -0.00191 |
| RRIRGRPPRLPRPRPRPSFLPRP | -0.118 |
| RRIRFRPPRLPRPRPRPTCHPRP | -0.231 |
| RRIRERPPRLPRPRPRPASHPRP | -0.34 |
| RRIRRRPPRLPRPRPRPRRMPRP | 0.206 |
| RRIRARPPRLPRPRPRPMGRPRP | 0.275 |
| RRIRTRPPRLPRPRPRPIDLPRP | -1.07 |
| RRIRARPPRLPRPRPRPPQNPRP | 1.05 |
| RRIRPRPPRLPRPRPRPGSNPRP | -0.082 |
| RRIRRRPPRLPRPRPRPQTWPRP | 0.345 |
| RRIRGRPPRLPRPRPRPQEDPRP | 0.291 |
| RRIRSRPPRLPRPRPRPLDRPRP | 0.218 |

| Sequence | shrunken log2 fold change |
| --- | --- |
| RRIRCRPPRLPRPRPRPRQRPRP | 0.645 |
| RRIRDRPPRLPRPRPRPWCLPRP | -0.129 |
| RRIRNRPPRLPRPRPRPGWQPRP | 0.116 |
| RRIRNRPPRLPRPRPRPVELPRP | -0.0081 |
| RRIRYRPPRLPRPRPRPLVEPRP | -0.234 |
| RRIRSRPPRLPRPRPRPSPMPRP | -0.132 |
| RRIRCRPPRLPRPRPRPIGHPRP | -0.312 |
| RRIRNRPPRLPRPRPRPCHYPRP | 0.00673 |
| RRIRKRPPRLPRPRPRPVTEPRP | 0.42 |
| RRIRSRPPRLPRPRPRPELPPRP | 0.0311 |
| RRIRARPPRLPRPRPRPWDHPRP | -0.00959 |
| RRIRDRPPRLPRPRPRPILGPRP | -0.0116 |
| RRIRSRPPRLPRPRPRPAKKPRP | 0.0292 |
| RRIRTRPPRLPRPRPRPSNLPRP | -0.97 |
| RRIRWRPPRLPRPRPRPKEFPRP | -0.228 |
| RRIRGRPPRLPRPRPRPVAFPRP | 0.722 |
| RRIRVRPPRLPRPRPRPHPMPRP | -0.15 |
| RRIRKRPPRLPRPRPRPLAVPRP | 0.0855 |
| RRIRWRPPRLPRPRPRPYPSPRP | -0.0856 |
| RRIRLRPPRLPRPRPRPFNYPRP | -0.817 |
| RRIRRRPPRLPRPRPRPAGNPRP | -0.0218 |
| RRIRKRPPRLPRPRPRPWFIPRP | -0.131 |
| RRIRTRPPRLPRPRPRPGLKPRP | 0.0372 |
| RRIRIRPPRLPRPRPRPKCNPRP | -0.701 |
| RRIRCRPPRLPRPRPRPISEPRP | -0.0601 |
